The text below walks through data of paper PMC6172828.

Assay [1] deals with human ATF7IP peptide, K16me3, C-terminal biotin (human). The experiment in a line: SPR; same chip and buffer, 25 °C; kinetics not fitted, KD by steady-state affinity analysis; for all tri-methylated peptides and LIG1 K126me2 G9a SET-domain in twofold dilutions from 200 µM. Background: Surface plasmon resonance follows binding to a sensor surface in real time, without labels.
The target in assay [2] is histone H3 peptide, K9me1, C-terminal biotin (human). The experiment in a line: SPR; biotinylated peptides immobilised on streptavidin chip SA, Biacore T200, 25 °C, 10 mM HEPES pH 7.4, 150 mM NaCl; G9a SET-domain 1.5-fold dilutions from 20 or 10 µM; 1:1 binding model, KD calculated from kon and koff.
Assay [3] has as its target human ATF7IP peptide, K16me2, C-terminal biotin (human). The assay is described as above.
Assay [4] concerns the target human ATF7IP peptide, unmodified (K16me0), C-terminal biotin (human). The assay is described as above.
For assay [5], the target named is human ATF7IP peptide, K16me1, C-terminal biotin (human). The description is as above.
Assay [6] addresses histone H3 peptide, K9me2, C-terminal biotin (human). Described as above.
Assay [7] concerns the target histone H3 peptide, unmodified (K9me0), C-terminal biotin (human). The assay is described as above.

The term Kd denotes the concentration at which binding is half-saturated. With “human G9a SET-domain (residues 913–1193) (from UniProt Q96KQ7 913-1193) (domain or fragment)”, the Kd in assay [1] was above 1000 nM; in assay [2], 430 nM; in assay [3] it was 38 nM; in assay [4], 180 nM; in assay [5] it was 43 nM; in assay [6], 350 nM. For the same substance, in assay [7], the Kd was 90 nM.
